Measured values reported in patent publication US20040185566A1, “Polypeptides toxic to nematodes and methods of use” (priority 2003, published 2004).
Where “and” joins values, the source holds several entries; their conditions need not be identical. Identical values can stand only once.

Experiments:
[1] = system: R. similis; test: Assay for lytic activity against R. similis (microtiter plates); type: in vivo
Method: The assays were performed in microtiter plates. Ten microliters of R. similissuspensions were placed in microtiter plate wells. Serially diluted SMP #1 (100U in 0.1 ml stock) was added to the wells. PBS was added to a series of wells containing R. similis as a control. The nematodes were stored at 20° C. and examined for lytic effects or death at 48 and 96 hours.

[2] = Native isoelectric focusing; type: physicochemical; conditions: polypeptide produced by S. marcescens NRRL B-23112
Method: The isoelectric point (pI) of purified SMP#1 was determined using a vertical mini-gel system (Roberston et al. 1987) and 1.5 mm polyacrylamide gels consisting of 5% (w/v) 30:1 acrylamide/bisacrylamide, 10% (v/v) glycerol and 2% (w/v) pH 4-8 ampholytes. Electrode solutions were cooled to 4° C. prior to electrophoresis. The anode solution was 20 mM acetic acid and the cathode solution was 25 mM NaOH. Samples and protein standards (Sigma) were mixed with an equal volume of 50% (v/v) glycerol and 4%(w/v) ampholytes in the pH range of 4-8. Samples were prepared for isoelectric focusing by concentrating and desalting in a centriprep concentrator (Amicon) with a molecular mass exclusion limit of 10 000 Da. Electrophoresis was at 25° C. and 200 volts for 1.5 hours. The gels were fixed with 10% (w/v) trichloroacetic acid for 10 minutes with gentle agitation. Ampholytes were removed by shaking the gel for 2 hours in 1% (w/v) trichloroacetic acid. After rinsing with Milli-Q-water, the gels were stained with 0.25% (w/v) Coomassie blue R-250 in 45% (v/v) methanol and 10% (v/v) acetic acid for 10 minutes. The gels were destained in 45% (v/v) methanol and 10% (v/v) acetic acid until the background was clear.

[3] = system: casein; test: Proteolytic activity of SMP #1 (casein digestion), pH optimum and activity with detergents/solvents; type: biochemical
Method: Proteolytic activity was determined by casein digestion (Kunitz 1947). Substrate consisting of 0.75 ml 1.0% (w/v) casein in 100 mM TRIS/HCL, 1 mM MgCl2 (pH 8) at 30° C. Protease samples (0.1 ml) were brought to 30° C., added to the substrate and incubated at 30° C. After 30 minutes, the reaction was quenched with 0.5ml 10% (w/v) trichloroacetic acid (TCA). After 15 minutes at 25° C., the quenched reaction mixture was centrifuged at 10 000 g for 10 minutes to pellet precipitated protein and the A280 of the supernatant was determined. One unit of proteolytic activity was defined as the amount of enzyme that produced an increase of absorbance at 280 nM of 0.1 under the conditions of the assay.
Several compounds were tested as to characterize the novel protein. Effect of protease inhibitors (30-120 μ/ml antipain dihydrochloride, 1-4 μ/ml aprotinin, 20-80 μg/ml bestatin, 25-50 μg/ml chymostatin, 5-20 μg/ml E-64, 10-60 mM EDTA, 1-74 μg/ml leupeptin, 500-2000 μg/ml Pefabloc SC, 1-4 μ/ml pepstatin, 165-660 μlg/ml phosphoramidon and 100-400 μg/ml PMSF), SDS (0.1%-1%), Tween-20 (0.1%-1%), Triton X-100 (0.1%-1%), ethanol (1%-5%), and 2-mercaptoethanol (0.1%-1%) were determined by addition to the standard reaction mixture. Residual proteolytic activity was determined after incubation at 25° C. for 30 minutes.

[4] = system: A. suum; test: Assay for lytic activity against live A. suum; conditions: for 12 hours Death / 12 hours Lysis / 24 hours Death / 24 hours Lysis: protein conc. 0.1 mg/ml

B1: SMP #1: serratia metalloprotease isolated from S. marcescens NRRL B-23112, amino acid sequence SEQ ID NO:2; selective nematolytic activity (protein, listed as Serratia marcescens)
chain: MQSTKKAIEITESSLAAATTGYDAVDDLLHYHERGNGIQINGKDSFSNEQAGLFITRENQTWNGYKVFGQPVKLTFSFPDYKFSSTNVAGDTGLSKFSAEQQQQAKLSLQSWADVANITFTEVAAGQKANITFGNYSQDRPGHYDYGTQAYAFLPNTIWQGQDLGGQTWYNVNQSNVKHPATEDYGRQTFTHEIGHALGLSHPGDYNAGEGNPTYNDVTYAEDTRQFSLMSYWSETNTGGDNGGHYAAAPLLDDIAAIQHLYGANLSTRTGDTVYGFNSNTGRDFLSTTSNSQKVIFAAWDAGGNDTFDFSGYTANQRINLNEKSFSDVGGLKGNVSIAAGVTIENAIGGSGNDVIVGNAANNVLKGGAGNDVLFGGGGADELWGGAGKDIFVFSAASDSAPGASDWIRDFQKGIDKIDLSFFNKEAQSSDFIHFVDHFSGTAGEALLSYNASSNVTDLSVNIGGHQAPDFLVKIVGQVDVATDFIVHSNGTPGAVSAGRDA
Q: Which “Dead (nematodes counted)” value ([1]; 10 U/well, 10 wells, 20° C.) does the source give for B1 here?
A: 298 and 300

Q: And the “% mortality” value ([1]; 10 U/well, 10 wells, 20° C., significant difference (p < 0.05) between treatments)?
A: 99% and 100%

Q: What about the “lysis / mortality of the nematode on contact” value ([1]; R. similis) of the same molecule?
A: lyses the nematode

Q: And the “time until cuticle and body wall are lysed and internal viscera expelled” value ([1]; R. similis)?
A: ≤ 30 h

Q: And the Isoelectric point [2]?
A: 6.1

Q: What about the “proteolytic activity retained in the presence of additive” value (“proteolytic activity retained” for short) ([3]; 2-mercaptoethanol (0.5% v/v)) of the same molecule?
A: retains full activity

Q: And the “proteolytic activity retained” value ([3]; SDS (1% w/v))?
A: retains full activity

Q: What about the “proteolytic activity retained” value ([3]; Triton X-100 (1% w/v)) of the same molecule?
A: retains full activity

Q: And the “proteolytic activity retained” value ([3]; Tween-20 (1% w/v))?
A: retains full activity

Q: What about the “proteolytic activity retained” value ([3]; ethanol (5% v/v)) of the same molecule?
A: retains full activity

Q: And the “Optimum pH” value ([3]; polypeptide produced by S. marcescens NRRL B-23112)?
A: 10

Q: And the “lysis / mortality of the nematode on contact” value ([4]; A. suum)?
A: lyses the nematode

Q: What about the “time until cuticle and body wall are lysed and internal viscera expelled” value ([4]; A. suum) of the same molecule?
A: ≤ 30 h

Q: And the “12 hours Death” value ([4]; 10 mM 2-mercaptoethanol)?
A: (+)

Q: What about the “12 hours Lysis” value ([4]; 10 mM 2-mercaptoethanol) of the same molecule?
A: (+++)

Q: What about the “24 hours Death” value ([4]; 10 mM 2-mercaptoethanol) of the same molecule?
A: (+)

Q: And the “24 hours Lysis” value ([4]; 10 mM 2-mercaptoethanol)?
A: (+++)

B2: papain (protein, UniProt P00784 134-345, looked up)
Papain: IPEYVDWRQKGAVTPVKNQGSCGSCWAFSAVVTIEGIIKIRTGNLNEYSEQELLDCDRRSYGCNGGYPWSALQLVAQYGIHYRNTYPYEGVQRYCRSREKGPYAAKTDGVRQVQPYNEGALLYSIANQPVSVVLEAAGKDFQLYRGGIFVGPCGNKVDHAVAAVGYGPNYILIKNSWGTGWGENGYIRIKRGTGNSYGVCGLYTSSFYPVKN
Q: Which “12 hours Death” value ([4]; 2-mercaptoethanol 0) does the source give for B2 here?
A: (+)

Q: What about the “12 hours Lysis” value ([4]; 2-mercaptoethanol 0) of the same molecule?
A: (+++)

Q: What about the “24 hours Death” value ([4]; 2-mercaptoethanol 0) of the same molecule?
A: (+)

Q: And the “24 hours Lysis” value ([4]; 2-mercaptoethanol 0)?
A: (+++)
